The data set concerns the target T1, rLin28 (Lin28) (UniProt Q9H9Z2 1-209).
T1 sequence: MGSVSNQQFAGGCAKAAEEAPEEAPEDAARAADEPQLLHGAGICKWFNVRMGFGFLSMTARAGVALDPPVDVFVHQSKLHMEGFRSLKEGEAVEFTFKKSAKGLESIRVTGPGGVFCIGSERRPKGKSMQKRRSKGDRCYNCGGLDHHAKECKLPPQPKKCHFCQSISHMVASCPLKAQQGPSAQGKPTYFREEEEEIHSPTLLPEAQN
The data set is described as follows: EMSA.

B1: pre-let-7a-1 (structured_RNA)
RNA: GGGCUGAGGUAGUAGGUUGUAUAGUUUUAGGGUCACACCCACCACUGGGAGAUAACUAUACAAUCUACUGUCUUUCC
B1 displayed a Kd of 1990 nM.
